{"source": "paper PMC2784926", "molecular_target": "β-catenin (UniProt P35222)", "experiment": "GST pull-down after in vitro kinase reaction", "details": "reference: WT His-α-catenin with CK2α; sites S641", "data": [{"substance": "α-catenin (from UniProt P35221) His-α-catenin S641A with CK2α", "values": [{"measurement": "binding against the reference", "result": "stronger"}]}]}
